How the values were obtained:
[1] = target: T1, PolyrC-Binding Protein PCBP1 (prey6634), prey fragments (Human, UniProt Q15365 1-356); test: yeast two-hybrid screen, bait VPU_v1 (pB27), Human CEMC7 dT Primed prey library; table of bait-prey interactions
T1 construct: also called polyRC BP1; HNRPE1

[2] = target: T2, ATF6 alpha (prey34104, hATF6), prey fragments (Human, UniProt P18850 1-670); test: yeast two-hybrid screen, bait TM_v1 (pB6), Human CEMC7 Random Primed prey library; table of bait-prey interactions
T2 construct: also called prey34106
T2 sequence: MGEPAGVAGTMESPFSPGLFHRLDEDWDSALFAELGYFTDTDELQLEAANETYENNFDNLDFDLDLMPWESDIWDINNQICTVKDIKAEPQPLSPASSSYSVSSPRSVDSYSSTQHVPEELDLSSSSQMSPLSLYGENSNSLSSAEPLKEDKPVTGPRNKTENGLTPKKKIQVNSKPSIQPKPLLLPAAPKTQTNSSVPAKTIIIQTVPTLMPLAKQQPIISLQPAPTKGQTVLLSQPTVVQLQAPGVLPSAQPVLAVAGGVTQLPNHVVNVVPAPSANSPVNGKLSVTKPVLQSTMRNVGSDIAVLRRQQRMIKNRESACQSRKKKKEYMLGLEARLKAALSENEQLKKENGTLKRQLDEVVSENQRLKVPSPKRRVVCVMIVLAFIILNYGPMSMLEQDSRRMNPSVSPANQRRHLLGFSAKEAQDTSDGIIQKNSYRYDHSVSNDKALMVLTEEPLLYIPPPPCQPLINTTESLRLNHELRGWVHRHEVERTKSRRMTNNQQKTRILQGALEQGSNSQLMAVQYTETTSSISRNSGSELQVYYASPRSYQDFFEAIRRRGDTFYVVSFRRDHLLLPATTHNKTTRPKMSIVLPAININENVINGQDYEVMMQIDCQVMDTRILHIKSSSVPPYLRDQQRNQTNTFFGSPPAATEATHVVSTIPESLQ

[3] = target: T3, sterol regulatory element-binding protein 1 (hSREBF1, prey15532), prey fragments (Human, UniProt P36956 1-1147); test: as above
T3 construct: also called SREBP1; hSREBP 1
T3 sequence: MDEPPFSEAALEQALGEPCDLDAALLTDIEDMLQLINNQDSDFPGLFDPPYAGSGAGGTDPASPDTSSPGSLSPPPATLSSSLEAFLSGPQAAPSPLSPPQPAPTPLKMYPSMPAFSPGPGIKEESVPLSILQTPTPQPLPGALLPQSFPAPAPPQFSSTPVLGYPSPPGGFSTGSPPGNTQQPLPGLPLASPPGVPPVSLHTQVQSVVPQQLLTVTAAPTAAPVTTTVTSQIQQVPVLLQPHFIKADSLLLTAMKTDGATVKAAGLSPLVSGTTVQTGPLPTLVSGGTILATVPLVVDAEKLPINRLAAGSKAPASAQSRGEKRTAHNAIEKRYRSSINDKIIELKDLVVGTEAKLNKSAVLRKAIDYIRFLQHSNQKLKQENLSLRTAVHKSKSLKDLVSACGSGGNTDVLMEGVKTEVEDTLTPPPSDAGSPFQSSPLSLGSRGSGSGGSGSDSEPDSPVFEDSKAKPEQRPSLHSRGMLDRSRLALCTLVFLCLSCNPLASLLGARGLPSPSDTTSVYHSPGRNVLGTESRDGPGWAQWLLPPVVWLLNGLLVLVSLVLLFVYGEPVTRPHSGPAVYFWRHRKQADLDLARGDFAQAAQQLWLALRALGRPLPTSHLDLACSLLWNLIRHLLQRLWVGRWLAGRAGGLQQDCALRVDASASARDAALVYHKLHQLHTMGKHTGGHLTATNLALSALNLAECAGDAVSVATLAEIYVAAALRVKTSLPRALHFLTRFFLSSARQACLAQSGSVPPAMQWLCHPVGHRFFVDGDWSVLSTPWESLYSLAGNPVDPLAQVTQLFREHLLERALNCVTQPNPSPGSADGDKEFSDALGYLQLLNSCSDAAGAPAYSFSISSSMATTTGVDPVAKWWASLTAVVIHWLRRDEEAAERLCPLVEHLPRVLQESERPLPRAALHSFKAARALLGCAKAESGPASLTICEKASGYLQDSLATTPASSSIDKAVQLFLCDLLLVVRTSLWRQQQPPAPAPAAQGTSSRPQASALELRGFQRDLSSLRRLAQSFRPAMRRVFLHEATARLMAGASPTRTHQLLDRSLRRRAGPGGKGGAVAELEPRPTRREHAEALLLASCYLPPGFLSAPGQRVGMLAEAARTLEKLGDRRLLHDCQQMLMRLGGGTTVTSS

[4] = target: T4, sterol regulatory element binding protein 2 (hSREBF2, hgx33), prey fragments (Human, UniProt Q12772 1-1141); test: as above
T4 construct: also called SREBP2
T4 sequence: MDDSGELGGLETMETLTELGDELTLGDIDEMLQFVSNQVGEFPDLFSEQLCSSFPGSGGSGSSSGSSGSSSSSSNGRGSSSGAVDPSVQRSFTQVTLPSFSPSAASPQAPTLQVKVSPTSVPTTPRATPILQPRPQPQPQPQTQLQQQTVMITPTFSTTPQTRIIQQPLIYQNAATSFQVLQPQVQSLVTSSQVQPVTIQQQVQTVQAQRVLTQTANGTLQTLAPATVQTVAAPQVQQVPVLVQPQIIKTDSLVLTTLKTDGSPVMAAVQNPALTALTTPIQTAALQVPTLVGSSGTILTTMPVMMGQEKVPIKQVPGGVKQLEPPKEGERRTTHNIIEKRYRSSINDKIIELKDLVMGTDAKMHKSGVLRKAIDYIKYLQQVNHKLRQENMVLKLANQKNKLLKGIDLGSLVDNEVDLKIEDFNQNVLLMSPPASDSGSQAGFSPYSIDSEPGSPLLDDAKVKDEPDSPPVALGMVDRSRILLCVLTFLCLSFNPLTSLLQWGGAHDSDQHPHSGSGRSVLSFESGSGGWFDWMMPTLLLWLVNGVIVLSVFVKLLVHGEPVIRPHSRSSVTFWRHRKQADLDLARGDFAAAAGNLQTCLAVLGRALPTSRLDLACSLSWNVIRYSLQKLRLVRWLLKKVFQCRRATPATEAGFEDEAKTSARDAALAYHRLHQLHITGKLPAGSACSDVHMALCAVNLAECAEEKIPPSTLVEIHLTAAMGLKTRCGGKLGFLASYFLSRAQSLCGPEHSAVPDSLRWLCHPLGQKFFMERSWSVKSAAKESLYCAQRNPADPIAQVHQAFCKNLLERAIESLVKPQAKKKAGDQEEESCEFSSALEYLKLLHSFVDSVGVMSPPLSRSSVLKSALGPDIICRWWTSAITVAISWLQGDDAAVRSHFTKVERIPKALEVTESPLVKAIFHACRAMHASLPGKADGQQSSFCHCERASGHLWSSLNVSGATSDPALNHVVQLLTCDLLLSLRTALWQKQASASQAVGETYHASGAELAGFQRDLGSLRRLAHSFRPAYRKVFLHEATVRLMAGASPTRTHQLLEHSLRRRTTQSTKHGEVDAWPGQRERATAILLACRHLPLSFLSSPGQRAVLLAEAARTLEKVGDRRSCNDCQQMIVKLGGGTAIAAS

[5] = target: T5, Human RNUT1 (prey024605), prey fragments (Human, UniProt O95149 1-360); test: yeast two-hybrid screen, bait IN (pB27), CEMC7 random primed cDNA prey library; table of bait-prey interactions
T5 construct: also called Snurportin1; Snurportin
T5 sequence (O95149 whole entry, the tested form may be a part): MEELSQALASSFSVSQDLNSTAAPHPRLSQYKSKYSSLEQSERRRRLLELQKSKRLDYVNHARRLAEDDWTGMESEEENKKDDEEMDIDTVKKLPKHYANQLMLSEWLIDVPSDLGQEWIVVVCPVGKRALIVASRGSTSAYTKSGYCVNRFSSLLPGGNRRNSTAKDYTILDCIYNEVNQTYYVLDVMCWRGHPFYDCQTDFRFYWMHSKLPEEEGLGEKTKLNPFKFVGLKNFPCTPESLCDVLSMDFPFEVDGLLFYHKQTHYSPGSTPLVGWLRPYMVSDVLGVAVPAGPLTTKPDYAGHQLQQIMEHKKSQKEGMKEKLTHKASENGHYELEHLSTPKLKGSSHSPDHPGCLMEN

[6] = target: T6, Human HBOA (prey001626), prey fragments (Human, UniProt O95251 1-611); test: yeast two-hybrid screen, bait IN (pB27), CEMC7 oligo dT primed cDNA prey library; table of bait-prey interactions
T6 construct: also called HBO1
T6 sequence (O95251 whole entry, the tested form may be a part): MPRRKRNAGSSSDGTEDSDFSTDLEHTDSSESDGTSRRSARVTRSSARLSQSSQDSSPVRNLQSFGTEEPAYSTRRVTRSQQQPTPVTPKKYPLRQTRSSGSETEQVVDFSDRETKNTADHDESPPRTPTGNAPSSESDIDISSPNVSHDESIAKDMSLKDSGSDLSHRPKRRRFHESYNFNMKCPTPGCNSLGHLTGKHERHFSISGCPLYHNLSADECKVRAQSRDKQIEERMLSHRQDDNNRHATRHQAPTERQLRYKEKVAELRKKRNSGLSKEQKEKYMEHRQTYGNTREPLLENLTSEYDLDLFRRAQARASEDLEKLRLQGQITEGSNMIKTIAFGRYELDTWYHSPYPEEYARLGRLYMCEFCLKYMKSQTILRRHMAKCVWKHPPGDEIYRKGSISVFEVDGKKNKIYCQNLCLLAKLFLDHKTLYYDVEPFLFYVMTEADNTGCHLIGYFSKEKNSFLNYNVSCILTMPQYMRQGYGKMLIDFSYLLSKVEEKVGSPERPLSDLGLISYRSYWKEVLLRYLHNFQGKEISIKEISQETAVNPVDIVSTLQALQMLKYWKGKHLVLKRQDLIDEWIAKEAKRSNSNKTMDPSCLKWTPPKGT

[7] = target: Human EIF3S3 (prey024567), prey fragments (Human, UniProt O15372 1-352); test: as above
Sequence of Human EIF3S3 (prey024567), prey fragments (O15372 whole entry, the tested form may be a part): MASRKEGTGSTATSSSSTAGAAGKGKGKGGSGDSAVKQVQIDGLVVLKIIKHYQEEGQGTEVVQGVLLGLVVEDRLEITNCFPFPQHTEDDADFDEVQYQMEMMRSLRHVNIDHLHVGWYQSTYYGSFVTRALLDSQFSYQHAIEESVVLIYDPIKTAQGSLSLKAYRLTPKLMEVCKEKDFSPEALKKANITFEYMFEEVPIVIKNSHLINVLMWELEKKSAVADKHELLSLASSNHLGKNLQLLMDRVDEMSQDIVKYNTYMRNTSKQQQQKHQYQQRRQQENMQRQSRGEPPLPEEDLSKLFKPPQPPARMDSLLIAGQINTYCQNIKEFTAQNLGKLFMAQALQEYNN

T1 sequence (Q15365 whole entry, the tested form may be a part): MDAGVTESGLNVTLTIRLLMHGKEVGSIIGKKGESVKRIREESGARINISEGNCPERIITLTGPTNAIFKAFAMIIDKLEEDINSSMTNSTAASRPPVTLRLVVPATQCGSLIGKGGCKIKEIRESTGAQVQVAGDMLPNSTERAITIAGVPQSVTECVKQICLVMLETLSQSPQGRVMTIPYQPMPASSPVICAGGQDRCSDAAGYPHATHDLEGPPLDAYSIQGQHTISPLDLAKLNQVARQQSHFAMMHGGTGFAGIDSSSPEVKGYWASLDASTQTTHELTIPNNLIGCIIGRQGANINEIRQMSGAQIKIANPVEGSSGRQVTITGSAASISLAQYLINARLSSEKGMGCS

B1: HIV-1 Vpu, bait VPU_v1 (other)
chain: LQSLQVLAIVALVVATIIAIVVWTIVFIEYRKILRQRKIDRLINRITERAEDSGNESDGDQEELSALVERGHLAPWDVDDL
notes: It holds the N-terminal transmembrane anchor domain
binding result [1]: binds

B2: cytoplasmic domain of HIV-1 Env TM Gp41, bait TM_v1 (other)
chain: VVLSIVNRVRQGYSPLSFQTHLPAQRGPDRPDGIEEEGGERDRDRSGPLVDGFLAIIWVDLRSLCLFSYHRLRDLLLIVTRIVELLGRRGWGVLKYWWNLLQYWIQELKNSAVSLLNATAIAVAEGTDRVIEILQRAFRAVLHIPVRIRQGLERALL
notes: also called TM cyto; TM Gp41 cytoplasmic domain
binding result [2]: binds
binding result [3]: binds
binding result [4]: binds

B3: HIV-1 Integrase (IN), bait IN (enzyme)
chain: FLDGIDKAQEEHEKYHSNWRAMASDFNLPPVVAKEIVASCDKCQLKGEAMHGQVDCSPGIWQLDCTHLEGKVILVAVHVASGYIEAEVIPAETGQETAYFLLKLAGRWPVTTIHTDNGSNFTSATVKAACWWAGIKQEFGIPYNPQSQGVVESMNKELKKIIGQVRDQAEHLKTAVQMAVFIHNFKRKGGIGGYSAGERIVDIIATDIQTKELQKQITKIQNFRVYYRDSRDPLWKGPAKLLWKGEGAVVIQDNSDIKVVPRRKAKIIRDYGKQMAGDDCVAGRQDED
binding result [5]: binds
binding result [6]: binds
binding result [7]: binds

— patent US20060034860A1 (CELLVIR, published 2006)
